Source: article PMC4176361

Key:
[1] = biological target: His-tagged RctB fragment C157 (Vibrio cholerae); assay: SEC; Superdex 200 10/300 GL in RctB buffer; molar mass from peak position against protein standards
[2] = biological target: His-tagged RctB fragment C157 (Vibrio cholerae); assay: AUC; sedimentation velocity, 50 000 rpm, 20°C; 0.3M NaCl, 0.025M Tris-HCl (pH 8.0), 0.0005M EDTA, 5% (v/v) glycerol; C137, C157 and C208 loaded at 3.6, 15 and 5.8 μM
[3] = biological target: His-tagged RctB fragment C208 (Vibrio cholerae); assay: SEC; Superdex 200 10/300 GL in RctB buffer; molar mass from peak position against protein standards
[4] = biological target: His-tagged RctB fragment C208 (Vibrio cholerae); assay: AUC; sedimentation velocity, 50 000 rpm, 20°C; 0.3M NaCl, 0.025M Tris-HCl (pH 8.0), 0.0005M EDTA, 5% (v/v) glycerol; C137, C157 and C208 loaded at 3.6, 15 and 5.8 μM

Substance: His-tagged RctB fragment C157 (domain or fragment)
- stoichiometry N [1]: 2
- stoichiometry N [2]: 2

Substance: His-tagged RctB fragment C208 (domain or fragment)
- stoichiometry N [3]: 2
- stoichiometry N [4]: 2
